PMC3300016

Tests used:
[1] = molecular target: BPV-1 E1 helicase domain (E1HD), residues 299-605 (bovine papillomavirus (BPV-1)) (UniProt P03116); test: SEC
[2] = molecular target: T1, E1HD (E1 helicase domain) (bovine papillomavirus BPV-1, UniProt P03116 299-605); test: EMSA
[3] = molecular target: T1, E1HD (E1 helicase domain); test: gel filtration

T1 sequence (P03116 299-605): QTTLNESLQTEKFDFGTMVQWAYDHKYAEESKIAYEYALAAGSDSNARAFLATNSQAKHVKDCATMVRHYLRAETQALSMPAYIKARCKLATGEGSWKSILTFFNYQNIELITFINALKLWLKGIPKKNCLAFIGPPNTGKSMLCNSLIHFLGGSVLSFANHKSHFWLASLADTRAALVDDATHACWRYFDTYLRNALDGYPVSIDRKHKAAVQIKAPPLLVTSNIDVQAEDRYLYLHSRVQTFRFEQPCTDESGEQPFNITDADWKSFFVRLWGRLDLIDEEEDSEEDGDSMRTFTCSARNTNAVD

## BPV-1 E1 helicase domain (E1HD), residues 299-605 (from UniProt P03116 299-605) (domain or fragment)
[1]
  stoichiometry N: 6

## TTTTTTTTTTTTTTTTTTTTTTTTTTTTTT (ssDNA) [T30]
[2]
  binding result: binds

## TTTTTTTTTTTTTTTTTT (ssDNA) [T18]
[3]
  binding result: binds
